Laboratory results published in US20240401239A1 (US Dept. of Health and Human Services, published 2024).

What was measured:
[1] = biological target: spike protein of authentic SARS-COV-2 virus (USA_WA1/2020) (SARS-COV-2, UniProt P0DTC2 14-1273); experiment: cell-based or functional assay
[2] = biological target: SARS-COV-2 S protein (Wuhan-Hu-1, WT) on MLV pseudotyped particles (SARS-COV-2, UniProt P0DTC2 14-1254); experiment: cell-based or functional assay
[3] = biological target: SARS-COV-2 spike protein receptor binding domain fused to an Fc tag (RBD-Fc, residues 319-541) (Sino … (SARS-COV-2, UniProt P0DTC2 319-541))
[4] = biological target: T1, mitochondrial elongation factor 1 (MIEF1) (human, UniProt Q9NQG6 1-463); experiment: flow cytometry validation after the membrane proteome array screen
T1 construct: whole, on cells
T1 sequence (Q9NQG6 whole entry): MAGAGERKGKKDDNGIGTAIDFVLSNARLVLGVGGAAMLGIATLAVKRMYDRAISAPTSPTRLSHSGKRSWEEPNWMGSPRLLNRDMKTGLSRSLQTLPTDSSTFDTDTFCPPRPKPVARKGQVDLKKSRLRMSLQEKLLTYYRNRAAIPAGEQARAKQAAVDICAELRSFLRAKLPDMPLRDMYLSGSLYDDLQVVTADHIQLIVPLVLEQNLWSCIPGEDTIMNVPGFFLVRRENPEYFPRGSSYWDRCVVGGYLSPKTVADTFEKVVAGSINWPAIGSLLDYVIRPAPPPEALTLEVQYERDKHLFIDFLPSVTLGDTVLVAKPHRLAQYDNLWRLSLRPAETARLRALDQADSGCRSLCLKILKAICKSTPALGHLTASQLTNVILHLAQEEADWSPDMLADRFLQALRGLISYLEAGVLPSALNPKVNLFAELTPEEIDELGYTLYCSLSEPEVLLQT

B1: RBD-1-2G-Tri (bispecific antibody)
chain: EVQLVESGGGLVQPGGSLRLSCAASGFSSIVYMGWFRQAPGKGRELVAAIDASGSTTNYPDSVEGRFTISRDNAKRMVYLQMNSLRAEDTAVYYCAIAYFTSPEYVVSQGWGQGTQVTVSSGGGGSGGGGSGGGGSEVQLVESGGGLVQPGGSLRLSCAASGFSSIVYMGWFRQAPGKGRELVAAIDASGSTTNYPDSVEGRFTISRDNAKRMVYLQMNSLRAEDTAVYYCAIAYFTSPEYVVSQGWGQGTQVTVSSGGGGSGGGGSGGGGSEVQLVESGGGLVQPGGSLRLSCAASGFSSIVYMGWFRQAPGKGRELVAAIDASGSTTNYPDSVEGRFTISRDNAKRMVYLQMNSLRAEDTAVYYCAIAYFTSPEYVVSQGWGQGTQVTVSSHHHHHH
IC50, SARS-COV-2 live virus (CPE) assay on Vero E6 cells [1]: 182 nM
IC50, pseudotyped particle entry assay, wildtype particles [2]: 4.5 nM

B2: RBD-1-2G-Fc (Fc fusion)
chain: EVQLVESGGGLVQPGGSLRLSCAASGFSSIVYMGWFRQAPGKGRELVAAIDASGSTTNYPDSVEGRFTISRDNAKRMVYLQMNSLRAEDTAVYYCAIAYFTSPEYVVSQGWGQGTQVTVSS
notes: also called bivalent format of RBD-1-2G
IC50, SARS-COV-2 live virus (CPE) assay on Vero E6 cells [1]: 255 nM
IC50, pseudotyped particle entry assay, wildtype particles [2]: 10.2 nM

B3: single-domain antibody RBD-1-2G (VHH)
VHH: EVQLVESGGGLVQPGGSLRLSCAASGFSSIVYMGWFRQAPGKGRELVAAIDASGSTTNYPDSVEGRFTISRDNAKRMVYLQMNSLRAEDTAVYYCAIAYFTSPEYVVSQGWGQGTQVTVSS
notes: also called RBD-1-2G Nb; RBD-1-2G nanobody
IC50 [3]: 28.3 nM
IC50, SARS-COV-2 live virus (CPE) assay on Vero E6 cells [1]: 1210 nM
IC50, SARS-COV-2 live virus assay, lyophilized and reconstituted RBD-1-2G [1]: 5900 nM
IC50, SARS-COV-2 live virus assay, untreated RBD-1-2G [1]: 14800 nM
IC50, SARS-COV-2 pseudotyped particle entry assay (HEK293-ACE2 cells) [2]: 490 nM
IC50, pseudotyped particle entry assay, wildtype particles [2]: 512 nM
binding result [4]: no binding
